Test results reported in patent US20060234925A1.

Key:
[1] = biological target: caprine CXCR3 (caprine (goat)) (UniProt Q867B2); experiment: cell-based or functional assay
[2] = biological target: ovine CXCR3 on peripheral blood mononuclear cells (ovine); experiment: cell-based or functional assay

Sequence of UniProt Q867B2 (Q867B2 whole entry): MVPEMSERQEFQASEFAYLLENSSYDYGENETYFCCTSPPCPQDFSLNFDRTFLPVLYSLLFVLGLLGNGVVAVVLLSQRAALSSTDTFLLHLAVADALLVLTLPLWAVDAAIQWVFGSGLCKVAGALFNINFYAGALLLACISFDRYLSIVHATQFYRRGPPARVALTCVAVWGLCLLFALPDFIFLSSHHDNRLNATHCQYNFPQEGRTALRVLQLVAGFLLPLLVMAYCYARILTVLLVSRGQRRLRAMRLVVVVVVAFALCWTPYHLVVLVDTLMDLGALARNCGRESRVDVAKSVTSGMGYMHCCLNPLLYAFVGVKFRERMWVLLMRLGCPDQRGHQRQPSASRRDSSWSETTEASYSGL

- chemotaxis of HTS-1 cells transfected with caprine CXCR3 [1]: 1 to 20 ng/mL
- chemotaxis of KU-1 cells transfected with caprine CXCR3 (modified Boyden chamber) [1]: 1 to 20 ng/mL
- chemotaxis of ovine PBMCs [2]: 0.2 to 5 ng/mL
Substance: recombinant caprine IP-10 (N-terminal histidine tag, mature region, expressed from pET-14b-cIP-10 in E. coli BL21-SI) (ligand)
